Results reported in IntAct's records for PubMed 32296183.

What was measured:
[1] = target: noto_human NOTO (UniProt A8MTQ0)
[2] = target: tm174_human TMEM174 (UniProt Q8WUU8)
[3] = target: prr34_human PRR34 (UniProt Q9NV39)
[4] = target: SIAH1, Q8IUQ4-2
[5] = target: pdli7_human PDLIM7 (UniProt Q9NR12)
[6] = target: tri27_human TRIM27 (UniProt P14373)
[7] = target: GLIS3, Q8NEA6-2
[8] = target: trib3_human TRIB3 (UniProt Q96RU7)
[9] = target: fx4l1_human FOXD4L1 (UniProt Q9NU39)
[10] = target: dazp2_human DAZAP2 (UniProt Q15038)
[11] = target: prdm6_human PRDM6 (UniProt Q9NQX0)
[12] = target: rm38_human MRPL38 (UniProt Q96DV4)
[13] = target: dtx3_human DTX3 (UniProt Q8N9I9)
Chain of dtx3_human DTX3 (Q8N9I9 whole entry): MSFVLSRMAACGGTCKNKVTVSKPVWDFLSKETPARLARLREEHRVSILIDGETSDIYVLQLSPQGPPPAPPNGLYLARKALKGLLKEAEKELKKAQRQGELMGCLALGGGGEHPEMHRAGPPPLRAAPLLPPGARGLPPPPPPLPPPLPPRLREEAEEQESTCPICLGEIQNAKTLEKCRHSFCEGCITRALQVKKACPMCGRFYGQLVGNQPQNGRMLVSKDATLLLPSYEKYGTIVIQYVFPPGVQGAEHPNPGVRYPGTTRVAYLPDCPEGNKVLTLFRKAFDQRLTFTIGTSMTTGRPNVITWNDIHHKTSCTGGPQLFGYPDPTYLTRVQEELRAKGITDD

[14] = target: ctds1_human CTDSP1 (UniProt Q9GZU7)
[15] = target: hspb8_human HSPB8 (UniProt Q9UJY1)
[16] = target: leng8_human LENG8 (UniProt Q96PV6)
[17] = target: egr4_human EGR4 (UniProt Q05215)
Chain of egr4_human EGR4 (Q05215 whole entry): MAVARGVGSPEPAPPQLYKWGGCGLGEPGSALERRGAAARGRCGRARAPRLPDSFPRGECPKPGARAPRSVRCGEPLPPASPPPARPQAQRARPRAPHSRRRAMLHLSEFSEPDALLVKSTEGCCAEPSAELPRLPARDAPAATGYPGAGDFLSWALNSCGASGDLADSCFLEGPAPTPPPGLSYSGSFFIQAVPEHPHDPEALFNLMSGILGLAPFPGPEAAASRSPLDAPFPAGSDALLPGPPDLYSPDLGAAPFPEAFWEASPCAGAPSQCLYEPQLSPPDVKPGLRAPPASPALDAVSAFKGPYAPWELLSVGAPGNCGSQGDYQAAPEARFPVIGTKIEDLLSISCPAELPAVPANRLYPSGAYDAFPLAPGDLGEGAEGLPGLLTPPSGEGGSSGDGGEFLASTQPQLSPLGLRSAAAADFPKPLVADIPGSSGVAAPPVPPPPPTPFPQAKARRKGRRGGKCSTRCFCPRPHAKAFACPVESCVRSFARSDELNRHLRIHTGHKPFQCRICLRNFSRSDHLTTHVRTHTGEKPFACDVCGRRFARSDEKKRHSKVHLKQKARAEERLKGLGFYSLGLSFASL

[18] = target: pa2gx_human PLA2G10 (UniProt O15496)
Chain of pa2gx_human PLA2G10 (O15496 whole entry): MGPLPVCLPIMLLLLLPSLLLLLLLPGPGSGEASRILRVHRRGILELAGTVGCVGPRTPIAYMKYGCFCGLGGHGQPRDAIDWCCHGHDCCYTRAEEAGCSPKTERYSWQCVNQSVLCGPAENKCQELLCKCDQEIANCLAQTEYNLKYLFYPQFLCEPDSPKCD

[19] = target: mdfi_human MDFI (UniProt Q99750)
Chain of mdfi_human MDFI (Q99750 whole entry): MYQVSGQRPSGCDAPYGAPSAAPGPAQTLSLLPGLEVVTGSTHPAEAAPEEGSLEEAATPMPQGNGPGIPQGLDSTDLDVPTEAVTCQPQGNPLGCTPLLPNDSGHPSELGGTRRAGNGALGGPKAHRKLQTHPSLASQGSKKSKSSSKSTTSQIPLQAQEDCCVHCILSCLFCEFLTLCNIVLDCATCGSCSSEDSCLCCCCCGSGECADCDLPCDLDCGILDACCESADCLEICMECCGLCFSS

[20] = target: NR1H3, Q13133-3
[21] = target: magd1_human MAGED1 (UniProt Q9Y5V3)
[22] = target: cytm1_human CYSTM1 (UniProt Q9H1C7)
Chain of cytm1_human CYSTM1 (Q9H1C7 whole entry): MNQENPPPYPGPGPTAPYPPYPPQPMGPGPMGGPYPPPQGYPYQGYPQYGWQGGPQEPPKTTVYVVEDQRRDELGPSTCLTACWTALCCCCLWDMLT

[23] = target: EYA2, O00167-2
Chain of EYA2, O00167-2 (O00167 other isoform, or with tags, fused parts or gaps): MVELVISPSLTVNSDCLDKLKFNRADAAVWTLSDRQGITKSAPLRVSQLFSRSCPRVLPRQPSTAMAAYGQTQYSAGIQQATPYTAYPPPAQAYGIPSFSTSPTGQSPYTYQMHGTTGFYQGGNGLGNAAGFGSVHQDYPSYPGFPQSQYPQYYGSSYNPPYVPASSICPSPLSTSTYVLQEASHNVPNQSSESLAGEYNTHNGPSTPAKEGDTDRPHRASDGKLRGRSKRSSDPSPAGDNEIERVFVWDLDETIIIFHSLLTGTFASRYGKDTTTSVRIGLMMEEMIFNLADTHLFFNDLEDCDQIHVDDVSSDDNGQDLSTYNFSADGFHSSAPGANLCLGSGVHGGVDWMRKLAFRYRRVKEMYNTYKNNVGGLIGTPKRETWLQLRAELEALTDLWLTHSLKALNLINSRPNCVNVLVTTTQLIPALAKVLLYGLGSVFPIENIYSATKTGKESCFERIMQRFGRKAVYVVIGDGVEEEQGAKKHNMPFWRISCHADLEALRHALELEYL

[24] = target: arrd3_human ARRDC3 (UniProt Q96B67)
[25] = target: ptn21_human PTPN21 (UniProt Q16825)
Chain of ptn21_human PTPN21 (Q16825 whole entry): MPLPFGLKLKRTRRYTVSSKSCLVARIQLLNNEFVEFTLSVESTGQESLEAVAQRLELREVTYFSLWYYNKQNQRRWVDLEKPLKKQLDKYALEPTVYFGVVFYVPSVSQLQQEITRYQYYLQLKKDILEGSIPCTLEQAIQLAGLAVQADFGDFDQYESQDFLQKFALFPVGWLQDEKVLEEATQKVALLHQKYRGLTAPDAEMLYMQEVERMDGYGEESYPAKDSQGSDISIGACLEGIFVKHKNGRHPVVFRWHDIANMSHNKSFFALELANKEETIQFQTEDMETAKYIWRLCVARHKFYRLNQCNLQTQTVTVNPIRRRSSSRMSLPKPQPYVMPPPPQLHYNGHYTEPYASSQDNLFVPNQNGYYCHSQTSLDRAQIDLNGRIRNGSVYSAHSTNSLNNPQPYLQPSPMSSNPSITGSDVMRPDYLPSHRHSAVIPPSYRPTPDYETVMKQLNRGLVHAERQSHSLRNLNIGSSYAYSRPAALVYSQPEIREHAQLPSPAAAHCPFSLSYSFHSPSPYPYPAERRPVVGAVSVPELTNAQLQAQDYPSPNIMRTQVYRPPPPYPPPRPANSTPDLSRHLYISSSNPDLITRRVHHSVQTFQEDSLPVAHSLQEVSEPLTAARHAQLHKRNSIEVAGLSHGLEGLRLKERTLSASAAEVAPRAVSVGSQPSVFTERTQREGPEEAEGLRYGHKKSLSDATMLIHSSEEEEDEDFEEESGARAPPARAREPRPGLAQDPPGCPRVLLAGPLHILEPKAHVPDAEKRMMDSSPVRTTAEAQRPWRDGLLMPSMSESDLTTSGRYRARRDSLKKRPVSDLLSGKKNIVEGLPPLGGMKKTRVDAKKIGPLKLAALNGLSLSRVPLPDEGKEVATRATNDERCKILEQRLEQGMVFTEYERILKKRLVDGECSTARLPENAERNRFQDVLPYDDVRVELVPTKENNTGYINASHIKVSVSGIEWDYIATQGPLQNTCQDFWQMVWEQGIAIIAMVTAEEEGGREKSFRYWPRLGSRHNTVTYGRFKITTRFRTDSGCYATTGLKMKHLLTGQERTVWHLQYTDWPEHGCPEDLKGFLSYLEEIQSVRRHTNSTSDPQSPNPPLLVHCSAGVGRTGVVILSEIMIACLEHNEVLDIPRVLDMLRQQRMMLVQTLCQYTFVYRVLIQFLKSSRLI

[26] = target: pihd2_human PIH1D2 (UniProt Q8WWB5)
Chain of pihd2_human PIH1D2 (Q8WWB5 whole entry): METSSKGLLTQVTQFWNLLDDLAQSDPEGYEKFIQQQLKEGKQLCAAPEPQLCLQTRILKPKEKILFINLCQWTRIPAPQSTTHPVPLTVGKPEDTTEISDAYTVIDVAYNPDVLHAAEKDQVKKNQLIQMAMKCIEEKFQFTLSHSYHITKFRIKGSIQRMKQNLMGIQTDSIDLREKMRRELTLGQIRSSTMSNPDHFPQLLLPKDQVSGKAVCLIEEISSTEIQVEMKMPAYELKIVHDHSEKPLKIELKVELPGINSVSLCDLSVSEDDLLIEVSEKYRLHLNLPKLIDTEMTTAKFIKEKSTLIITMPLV

[27] = target: wbp2_human WBP2 (UniProt Q969T9)
[28] = target: RUNX1, Q01196-8
[29] = target: vp37b_human VPS37B (UniProt Q9H9H4)
Chain of vp37b_human VPS37B (Q9H9H4 whole entry): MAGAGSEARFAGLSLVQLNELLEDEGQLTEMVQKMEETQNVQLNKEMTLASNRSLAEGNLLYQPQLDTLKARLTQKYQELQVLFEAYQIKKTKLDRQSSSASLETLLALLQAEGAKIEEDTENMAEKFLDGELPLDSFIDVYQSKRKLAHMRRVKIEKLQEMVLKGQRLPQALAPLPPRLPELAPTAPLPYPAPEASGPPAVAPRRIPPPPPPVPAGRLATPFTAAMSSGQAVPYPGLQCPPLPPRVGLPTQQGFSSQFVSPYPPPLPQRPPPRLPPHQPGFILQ

[30] = target: hspb7_human HSPB7 (UniProt Q9UBY9)

Chain of pdli7_human PDLIM7 (Q9NR12 whole entry): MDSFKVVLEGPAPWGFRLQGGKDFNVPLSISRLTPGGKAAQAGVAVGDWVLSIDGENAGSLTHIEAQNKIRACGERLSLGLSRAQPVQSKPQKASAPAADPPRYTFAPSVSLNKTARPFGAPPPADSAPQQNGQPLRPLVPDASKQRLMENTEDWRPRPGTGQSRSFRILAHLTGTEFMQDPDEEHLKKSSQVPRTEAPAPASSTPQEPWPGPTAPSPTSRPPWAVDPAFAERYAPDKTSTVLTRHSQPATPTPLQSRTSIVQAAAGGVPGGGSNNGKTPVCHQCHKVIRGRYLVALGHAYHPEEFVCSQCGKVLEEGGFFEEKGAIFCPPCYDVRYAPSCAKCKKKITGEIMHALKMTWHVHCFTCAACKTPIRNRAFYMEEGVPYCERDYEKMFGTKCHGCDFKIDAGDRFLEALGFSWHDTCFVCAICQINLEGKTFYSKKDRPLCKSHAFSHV
Chain of tm174_human TMEM174 (Q8WUU8 whole entry): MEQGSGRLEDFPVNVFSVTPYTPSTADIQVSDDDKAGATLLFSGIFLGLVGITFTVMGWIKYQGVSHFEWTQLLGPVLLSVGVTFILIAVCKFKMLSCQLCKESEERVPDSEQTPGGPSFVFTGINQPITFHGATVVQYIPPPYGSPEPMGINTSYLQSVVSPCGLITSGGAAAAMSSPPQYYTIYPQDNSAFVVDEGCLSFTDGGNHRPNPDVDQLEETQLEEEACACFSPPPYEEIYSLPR
Chain of tri27_human TRIM27 (P14373 whole entry): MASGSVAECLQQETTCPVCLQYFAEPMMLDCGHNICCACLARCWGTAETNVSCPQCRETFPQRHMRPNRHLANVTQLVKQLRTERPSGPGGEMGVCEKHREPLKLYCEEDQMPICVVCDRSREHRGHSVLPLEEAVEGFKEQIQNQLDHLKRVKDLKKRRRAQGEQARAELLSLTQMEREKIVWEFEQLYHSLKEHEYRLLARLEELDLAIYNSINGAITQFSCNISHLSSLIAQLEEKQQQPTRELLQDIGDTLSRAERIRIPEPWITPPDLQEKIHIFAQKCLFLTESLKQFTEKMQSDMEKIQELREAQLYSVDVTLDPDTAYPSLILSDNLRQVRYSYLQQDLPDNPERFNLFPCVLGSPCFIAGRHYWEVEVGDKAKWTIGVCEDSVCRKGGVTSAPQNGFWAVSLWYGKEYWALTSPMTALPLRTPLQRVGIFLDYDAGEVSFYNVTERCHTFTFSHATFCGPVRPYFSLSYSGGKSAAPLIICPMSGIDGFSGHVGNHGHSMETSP

| effect of a mutation on the interaction [1] | effect of a mutation on the interaction [2] | effect of a mutation on the interaction [3] | effect of a mutation on the interaction [4] | effect of a mutation on the interaction [5] | effect of a mutation on the interaction [6] | effect of a mutation on the interaction [7] | effect of a mutation on the interaction [8] | effect of a mutation on the interaction [9] | effect of a mutation on the interaction [10] | effect of a mutation on the interaction [13] | effect of a mutation on the interaction [14] | effect of a mutation on the interaction [15] | effect of a mutation on the interaction [16] | effect of a mutation on the interaction [17] | effect of a mutation on the interaction [18] | effect of a mutation on the interaction [19] | effect of a mutation on the interaction [20] | effect of a mutation on the interaction [21] | effect of a mutation on the interaction [23] | Substance | also measured |
| --- | --- | --- | --- | --- | --- | --- | --- | --- | --- | --- | --- | --- | --- | --- | --- | --- | --- | --- | --- | --- | --- |
| with no effect | disrupting interaction strength | with no effect | disrupting interaction strength | with no effect | with no effect | with no effect | disrupting interaction strength | with no effect | with no effect | with no effect | disrupting interaction strength | with no effect | disrupting interaction strength | with no effect | with no effect | with no effect | with no effect | with no effect | with no effect | BAG family molecular chaperone regulator 3 (Homo sapiens), O95817 L462P | effect of a mutation on the interaction [11]: with no effect; effect of a mutation on the interaction [12]: disrupting interaction strength; effect of a mutation on the interaction [22]: with no effect; effect of a mutation on the interaction [24]: with no effect; effect of a mutation on the interaction [25]: with no effect; effect of a mutation on the interaction [26]: with no effect; effect of a mutation on the interaction [27]: with no effect; effect of a mutation on the interaction [28]: with no effect; effect of a mutation on the interaction [29]: with no effect; effect of a mutation on the interaction [30]: with no effect |
| with no effect | with no effect | with no effect | with no effect | with no effect | with no effect | with no effect | with no effect | with no effect | with no effect | with no effect | with no effect | with no effect | with no effect | with no effect | with no effect | with no effect | with no effect | with no effect | with no effect | BAG family molecular chaperone regulator 3 (Homo sapiens), O95817 R218W | effect of a mutation on the interaction [22]: with no effect; effect of a mutation on the interaction [24]: with no effect; effect of a mutation on the interaction [25]: with no effect; effect of a mutation on the interaction [26]: with no effect; effect of a mutation on the interaction [27]: with no effect; effect of a mutation on the interaction [29]: with no effect; effect of a mutation on the interaction [30]: with no effect |
| with no effect | with no effect | with no effect | with no effect | with no effect | with no effect | with no effect | with no effect | with no effect | with no effect | with no effect | with no effect | with no effect | with no effect | with no effect | with no effect | with no effect | with no effect | with no effect | with no effect | BAG family molecular chaperone regulator 3 (Homo sapiens), O95817 R258W | effect of a mutation on the interaction [11]: with no effect; effect of a mutation on the interaction [12]: disrupting interaction strength; effect of a mutation on the interaction [24]: with no effect; effect of a mutation on the interaction [25]: with no effect; effect of a mutation on the interaction [26]: with no effect; effect of a mutation on the interaction [27]: with no effect; effect of a mutation on the interaction [28]: with no effect; effect of a mutation on the interaction [29]: with no effect; effect of a mutation on the interaction [30]: with no effect |
